According to patent US20210395318A1:
Where “and” joins values, the source holds several entries; their conditions need not be identical. Equal entries are not always repeated.

Target: human CD40 on primary human B cells or human monocyte-derived dendritic cells (human) (UniProt P25942)
Assay: cell-based or functional assay

Chain of human CD40 on primary human B cells or human monocyte-derived dendritic cells (human) (P25942 21-277 H80K/K81H limits assumed): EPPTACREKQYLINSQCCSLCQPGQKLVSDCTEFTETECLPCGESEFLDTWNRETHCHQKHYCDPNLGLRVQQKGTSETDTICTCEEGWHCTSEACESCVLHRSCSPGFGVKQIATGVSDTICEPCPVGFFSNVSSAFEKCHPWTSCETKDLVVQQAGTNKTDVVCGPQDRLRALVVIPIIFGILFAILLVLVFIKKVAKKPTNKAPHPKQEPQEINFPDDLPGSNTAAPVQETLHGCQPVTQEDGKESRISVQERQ

- EC50, % CD86, human B cells with FAP-CHO cells, w HSA: 0.88 nM and 0.3 nM
- EC50, % CD86, human B cells with FAP-CHO cells, w/o HSA: 1.9 nM and 0.51 nM
- EC50, MFI CD86, human B cells with FAP-CHO cells, w HSA: 0.51 nM and 2.05 nM
- EC50, MFI CD86, human B cells with FAP-CHO cells, w/o HSA: 1.13 nM and 4.73 nM
- Efficacy [MFI at highest dose], MFI CD86, human B cells with FAP-CHO cells, w HSA: 1530 MFI and 1870 MFI
- Efficacy [MFI at highest dose], MFI CD86, human B cells with FAP-CHO cells, w/o HSA: 1340 MFI and 2060 MFI
- Efficacy [MFI at highest dose], MFI CD86, human B cells with WT-CHO cells (no FAP), w HSA: 1900 MFI and 1470 MFI
- Efficacy [MFI at highest dose], MFI CD86, human B cells with WT-CHO cells (no FAP), w/o HSA: 2050 MFI and 1390 MFI
Substance: anti-CD40 monoclonal antibody (corresponds to sequence 21.4.1 of U.S. Pat. No. 7,338,660 B2)
